According to patent publication US20150353647A1 (UNIVERSITY OF TENNESSEE RESEARCH FOUNDATION, published 2015):

Molecular target: human tissue plasminogen activator (TPA) (human, UniProt P00750 36-562)
Experiment: cell-based or functional assay

Chain of human tissue plasminogen activator (TPA) (P00750 36-562 limits assumed): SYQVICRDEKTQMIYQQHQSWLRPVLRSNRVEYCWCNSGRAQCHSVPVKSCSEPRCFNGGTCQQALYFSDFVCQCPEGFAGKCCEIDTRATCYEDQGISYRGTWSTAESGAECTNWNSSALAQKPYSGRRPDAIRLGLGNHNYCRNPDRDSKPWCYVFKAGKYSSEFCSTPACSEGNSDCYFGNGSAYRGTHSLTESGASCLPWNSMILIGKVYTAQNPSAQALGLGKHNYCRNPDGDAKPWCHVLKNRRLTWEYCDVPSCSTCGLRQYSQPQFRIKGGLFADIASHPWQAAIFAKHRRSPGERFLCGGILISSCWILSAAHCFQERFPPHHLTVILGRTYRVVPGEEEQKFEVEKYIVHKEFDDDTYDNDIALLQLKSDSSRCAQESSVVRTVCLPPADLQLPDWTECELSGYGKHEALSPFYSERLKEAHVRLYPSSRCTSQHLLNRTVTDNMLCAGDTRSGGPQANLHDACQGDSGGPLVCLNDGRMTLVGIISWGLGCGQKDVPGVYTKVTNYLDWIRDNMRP

IC50, inhibition of TPA-induced fibrinolysis of human plasma clots (0.5 nM TPA, 2 hrs): 4.53 nM
B1: stable mutant human PAI-1 (four amino acid substitutions, N150H, K154T, Q319L, and M354I) (other, UniProt P05121 24-402, looked up)
chain: VHHPPSYVAHLASDFGVRVFQQVAQASKDRNVVFSPYGVASVLAMLQLTTGGETQQQIQAAMGFKIDDKGMAPALRHLYKELMGPWNKDEISTTDAIFVQRDLKLVQGFMPHFFRLFRSTVKQVDFSEVERARFIINDWVKTHTKGMISHLLGTGAVDQLTRLVLVNALYFNGQWKTPFPDSSTHRRLFHKSDGSTVSVPMMAQTNKFNYTEFTTPDGHYYDILELPYHGDTLSMFIAAPYEKEVPLSALTNILSAQLISHWKGNMTRLPRLLVLPKFSLETEVDLRKPLENLGMTDMFRQFQADFTSLSDQEPLHVALALQKVKIEVNESGTVASSSTAVIVSARMAPEEIIIDRPFLFVVRHNPTGTVLFMGQVMEP
